In experiment [1] the target is denatured multimeric human vitronectin (VTNC) (human).
In experiment [2] the target is somatomedin B domain (SMTB 1–44) of vitronectin (human). Kind of experiment: ELISA; competition: SMTB 1–44 (1.25 µg/well) immobilized; Cyr61 (30 nM) mixed with stable mutant PAI-1 (0, 50, 500 nM) or ixolaris (500 nM) in PBS-T, added for 90 minutes; bound Cyr61 detected with anti-Cyr61 antibody. In general terms: In an ELISA, binding on a coated surface is turned into a signal by an enzyme label.

For experiment [3] the target is unchanged. Kind of experiment: SPR; kinetics, Biacore T100: monomeric (667.4 RU) or multimeric (625.2 RU) VTNC or SMTB 1–44 (337.2 RU) immobilized on CM5 by amine coupling; analyte injected 90 s at 30 µl/minute, 25°C, HBS-P (10 mM Hepes pH 7.4, 150 mM NaCl, 0.005% P20); Cyr61 fitted by the global two-state (conformational change) model, PAI-1 by the Langmuir 1:1 model. For orientation: SPR reads the build-up and loss of mass on a sensor chip optically.

Experiment [4] has as its target Cyr61/CCN1 (UniProt O00622). Description: ELISA; competitive ELISA: wells coated with multimeric VTNC (25 ng/well); Cyr61 (30 nM) co-incubated for 90 minutes with increasing concentrations of soluble VTNC forms, SMTB 1–44 or ixolaris; VTNC-bound Cyr61 detected with anti-Cyr61 antibody.
The target in experiment [5] is PAI-1 (recombinant stable mutant form) (UniProt P05121). Kind of experiment: ITC; VP-ITC, 30°C, 5 µL injections of 10 µM SMTB 1–44 into 1 µM PAI-1 or Cyr61 in the cell; 20 mM Tris-HCl, 0.15 M NaCl, pH 7.4; single-site model. Background: ITC needs no label: the signal is the heat of the interaction.
Experiment [6] has as its target somatomedin B domain (SMTB 1–44) of vitronectin (human). Kind of experiment: ELISA; solid-phase binding assay: VTNC (25 ng/well) or SMTB 1–44 (2.5 µg/well) immobilized on plates, Cyr61 0–1 µM in PBS-0.4% Tween 20 for 90 minutes, detected with anti-Cyr61 monoclonal antibody; apparent KD by Langmuir isotherm.
In experiment [7] the target is denatured multimeric human vitronectin (VTNC) (human). Description: ELISA; solid-phase binding assay as a3 on multimeric VTNC, in TBS 0.4% Tween supplemented with 0.5% gelatin; apparent KD.
Experiment [8] addresses native monomeric human vitronectin (VTNC) (human). Kind of experiment: ELISA; solid-phase binding assay: VTNC (25 ng/well) or SMTB 1–44 (2.5 µg/well) immobilized on plates, Cyr61 0–1 µM in PBS-0.4% Tween 20 for 90 minutes, detected with anti-Cyr61 monoclonal antibody; apparent KD by Langmuir isotherm.
Experiment [9] concerns the target denatured multimeric human vitronectin (VTNC) (human). The description is as above.
In experiment [10] the target is native monomeric human vitronectin (VTNC) (human). Kind of experiment: SPR; kinetics, Biacore T100: monomeric (667.4 RU) or multimeric (625.2 RU) VTNC or SMTB 1–44 (337.2 RU) immobilized on CM5 by amine coupling; analyte injected 90 s at 30 µl/minute, 25°C, HBS-P (10 mM Hepes pH 7.4, 150 mM NaCl, 0.005% P20); Cyr61 fitted by the global two-state (conformational change) model, PAI-1 by the Langmuir 1:1 model.

The target in experiment [11] is denatured multimeric human vitronectin (VTNC) (human). Described as above.

Four molecules from paper PMC2829074 can be followed below.

Ends that are not written are not given here.

As a reminder, the koff is the rate constant with which the complex falls apart. A lower koff goes with a long-lived complex. As a reminder, the kon is the second-order rate constant of association. High values mean fast association, low ones slow association. As usually defined, the stoichiometry N is the number of molecules, sites or subunits per partner or assembly.

With “PAI-1 (recombinant stable mutant form) (from UniProt P05121 24-402) (natural protein)”, in experiment [1], the inhibition of adhesion of uPAR-bearing PMA-differentiated U937 cells to VTNC-coated wells pre-incubated with stable mutant PAI-1 (1.5 µM); pair blocked: uPAR with VTNC is over 90%. For the same molecule, the percent inhibition of Cyr61 binding to SMTB 1–44 at 500 nM PAI-1 in experiment [2] was over 80%. Also, in [3], the Kd came to 0.0433 nM, the koff turned out to be 0.0001 s⁻¹ and the kon turned out to be 2.31e+06 M⁻¹ s⁻¹.
Turning to “denatured multimeric human vitronectin (VTNC) (natural protein)”, in experiment [4], the percent inhibition of Cyr61 binding to immobilized VTNC at 15 µg/ml is over 50%.

B1: somatomedin B domain (SMTB 1–44) of vitronectin (peptide)
peptide: DQESCKGRCTEGFNVDKKCQCDELCSYYQSCCTDYTAECKPQVT
modifications: disulfide (positions not given here); also: eight oxidized cysteines, pairing not given here
Turning to B1, in experiment [5], the Kd is under 1 nM, the dH was -24 kcal/mol and the stoichiometry N is 0.77.

B2: Cyr61/CCN1 (natural protein)
chain: TCPAACHCPLEAPKCAPGVGLVRDGCGCCKVCAKQLNEDCSKTQPCDHTKGLECNFGASSTALKGICRAQSEGRPCEYNSRIYQNGESFQPNCKHQCTCIDGAVGCIPLCPQELSLPNLGCPNPRLVKVTGQCCEEWVCDEDSIKDPMEDQDGLLGKELGFDASEVELTRNNELIAVGKGSSLKRLPVFGMEPRILYNPLQGQKCIVQTTSWSQCSKTCGTGISTRVTNDNPECRLVKETRICEVRPCGQPVYSSLKKGKKCSKTKKSPEPVRFTYAGCLSVKKYRPKYCGSCVDGRCCTPQLTRTVKMRFRCEDGETFSKNVMMIQSCKCNYNCPHANEAAFPFYRLFNDIHKFRD
For B2, the Kd was 27.2 nM in [6]; 36.5 nM in experiment [7]; 26.5 nM in experiment [8]; 22.6 nM in experiment [9]; 5.66 nM in experiment [10]; 27.6 nM in [11]. The same molecule gave a Kd in experiment [3] of 10.1 nM. This molecule also came in with an inhibition of adhesion of uPAR-bearing PMA-differentiated U937 cells to VTNC-coated wells pre-incubated with Cyr61 (1.5 µM); pair blocked: uPAR with VTNC in [1] of 40%. For the same molecule, the ka1 (two-state model, step 1) came out at 568000 M⁻¹ s⁻¹ in experiment [10], 104000 M⁻¹ s⁻¹ in experiment [11] and 127000 M⁻¹ s⁻¹ in experiment [3]. In addition, the ka2 (two-state model, step 2) worked out at 0.00783 s⁻¹ in [10], 0.00255 s⁻¹ in experiment [11] and 0.0109 s⁻¹ in experiment [3]. Also, the results for the kd1 (two-state model, step 1) in experiment [10], in [11] and in experiment [3] were 0.0245 s⁻¹, 0.0695 s⁻¹ and 0.025 s⁻¹, respectively. The kd2 (two-state model, step 2) in experiment [10] amounted to 0.00118 s⁻¹; in [11] it was 0.00011 s⁻¹; in experiment [3], 0.000592 s⁻¹.
